The source of these data is a protein production outcome set (Wang et al. 2014).
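Note: failed if final PepcDB status was selected cloned or expressed and not failed if soluble or beyond.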

The series in a line: label from the status in PepcDB records.
As to “MTITPQQLIALLPLLIVGLTVVVVMLSIAWRRNHFLNATLSVLGLNAALVSLWFVGQNGAMDVTPLIRVDGYAMLYTGLVLLASLATCTFAYPWLEGYKDNKEEFYLLVLIAALGGILLAGANHLAALFLGIELISLPLFGLVGYAFRQKRSLEASIKYTILSAAASSFLLFGMALVYANSGNLSFLALGKSLADNMLHEPLLLAGLGLMIVGLGFKLSLVPFHLWTPDVYQGAPAPVSTFLATASKIAIFGVVMRLFLYMPVGNSEAVRVVLGLIAFASIIFGNLMALSQTNIKRLLGYSSISHLGYLLVALIALQSGEMSMEAVGVYLAGYLFSSLGAFGVVSLMSSPYRGPDADSLFSYRGLFWHRPILSAVMTVMMLSLAGIPMTLGFIGKFYVLAVGVHAHLWWLVAAVVVGSAIGLYYYLRVAVSLYLSAPEQLNRDAPSNWQYSAGGIVVLISALLVLVLGIWPQPLISIVQLATPLM”, the protein production entry is “failed”. In the case of “MRRSKADVERYIASVQGSAPSPREKSMKGFYFAKLYYEAKEYDLAKKYISTYINVQERDPKAHRFLGLLYEVEENIDKAVECYKRSVELNPTQKDLVLKIAELLCKNDVTDGRAKYWVERAAKLFPGSPAIYKLKEQLLDCKGEDGWNKLFDLIQSELYARPDDIHVNIRLVELYRSNKRLKDAVAHCHEADRNTALRSSLEWNLCVVQTLKEYLESLQCLDSDKSTWRATNKDLLLAYANLMLLTLSTRDVQEGRELLESFDSALQSVKSSVGGNDELSATFLETKGHFYMHVGSLLLKMGQQSDIQWRALSELAALCYLVAFQVPRPKVKLIKGEAGQNLLETMAHDRLSQSGHMLLNLSRGKQDFLKEVVESFANKSGQSALCDALFSSQSSKERSFLGNDDIGNLDGQVPDPDDLARYDTGAVRAHNGSLQHLTWLGLQWNSLSTLPAIRKWLKQLFHHLPQETSRLETNAPESICILDLEVFLLGVIYTSHLQLKEKCNSHHTSYQPLCLPLPVCRQLCTERQKTWWDAVCTLIHRKALPGTSAKLRLLVQREINSLRGQEKHGLQPALLVHWAQSLQKTGSSLNSFYDQREYIGRSVHYWRKVLPLLKMIRKKNSIPEPIDPLFKHFHSVDIQASEIGEYEEDAHITFAILDAVNGNIEDAMTAFESIKNVVSYWNLALIFHRKAEDIENDALSPEEQEECKNYLRKTRDYLIRILDDSDSNTSVVQKLWYISKQQKFGIWGWEDCTSVRV” it was “failed”. Take “PGFIDMHAHSELRLFENPGAREKLTQGITTEVLGQDGVSVAPVPPNLTDEWAERVKSLDGTLGETWPWHTVSGYLEALESVEPAVNCAYYAPHGNIRSMLAGFEDRPLSGEHVVAAGPVTGQRLDRPKSDHDTAPGELDAIRQELEVALEEGAFGMSKGMIYPPSSYARDDELVALADTLAKRDSFMISHVWNETDRVVESIDRYLDICRRGGCHAHVSHLKVGGQQNWGDSEAVLDLFDDAVDRGQRVTFDQYPYTAGSTMLTALLPPWARQGDSEAIRHRLNSAAVRDRIAADISQPGDWENLAYAAGSWDNILITRTGSGRYQGDTIADIAAEMDREPVDAMCELLVAEELDVTMADFVMAETDIERFLADDRGTFCTDGIFGGKPHPRAIGAFSRILERYVRERNVLSPELLAYKAAGNPADILG”: the protein production result is on record as “failed”. In the case of “MGSSSRQGWRSVFKDVTQKWDVMTVEEQEKELSLLEEWTERVLEEWSDMHEACMTLRERQQQSSVLEKYPPYVSKGTALYDLEMFPEAAMQFDRELKMQPHMHHPLLHLYAIFANLYGGQRERCKEHCVYVLTTSVDRLVRYFTYMALGTLYMQEGEVEEALTSYEHASKLTFHPDVMYNLGMAYFLQHQYALAIPCFMEVIKDGEEDVDALYFLGCALCESGYVEEGCAKWLEAIQLCPPEKVLLTIGAKLEWYGFHQAAVHCFEQLLQSRQLRHLAKHGIAWNLALQDEREKAIHMLKELIAVPQIREDVRLSIEFLAHCWNDGNLRQLAASIERG” it was “failed”; in that of “MFRGVAPPPERSSTPLPPTMTTTPEPGAALLLLIVSQLPGIGPSRARALLNRFGATPALLEADYDALRQIPGIGETTARETAERLANPAWRDKAREKGENQLARAERLEASVITILDPAYPPLLKEIYDPPLLLFARGNPEALCVPSLAVVGTRKATAYGKQATEFICREMVNNGYAILSGLAYGIDMMAHRAAVESNGVTIAVLGCGIDRIYTDPAGRLWPRILERGAIVSEEWIGIKPEPGNFPRRNRLIAGLAQGTLIVESDIKGGSMITASYALEQNREVFAIPGSIFSGTSRGTNYLIQQNHAKPVFSAEDILAELNPAQHPALKTHPEASEPFDLNIEESCIVEALQSGAMHIDLIAEKTGLKIDALLVHLFELELKRIIEQEPGQIFRKRTP”, “failed”. In the case of “MGKKLDALLGRSFKTNKFKSLITLALTRLSILKNQRQARLSQAISDVTELLKLGQHEHAYHRVDQVVKDQNTLDVLFFIHGYFTLCLDRIHLFEHNRDCPEELLEAVSGLLFAASRIGEFPELQEIRNVLISRFGKDLAARSIELRSNCGVDPKIIQKLSTRPPPKEVRMKALKEIAAENNIVLKLDQASTSTEGTTNMQGTSDVSKTKLTSKDGRGEGYGLSDSVKRGKKKYKDVADAAQAAFESAAHAAEAAQAAVELSQFSPRGHDSPGNIGGENSFHGSENKESEQEQEGNDDSSEGEGDVMSESKRSMSDSEDIIDVPVMSFREDPVKLLEKDTIIYDSEEETQPSVETITISKSKDEQNRMVGSNRADTRHVDHMVRSIEDPIMRKAGLKGPVSVRTRQVRGY” it was “failed”; in that of “MYSPFEILYLAIIIDSLSYTIGALLYGSPIPVRGFKEMGHKMIVNSIYVAVLANIFGLILSILSQLQNIVGANWSTFYLDIGLLQIQTGVAINMGKFLYGIIALILYYFKVPSQFYSLVTPLLQYISFLTDILILLNFYMDLGIFIQSSYMVLIAIGILLMALPFQMGKGIGAMLISFTIVFYVGLPLLPILISNSSPLQNQNFVLQDISLQTEEFYAQIPALFYSFILIPLTYVGVLVGFSVVLQSFIGGYVGRLPIPVEI”, “failed”. For the sequence “MNGFIPIIASIAISLPLLIFGSHSDVKKRSINSFTFLPIFILALAFYILDKDVVMSIVTILSTVAVFIKPNIYVYIVLPLIIIGIGFFDTINLLTILIVGMFLLTGFGELLFGIGDIKGIVSVVLLFSSIPRFNNYIPFSIVFVFFIAVASGGALLYFVVYARLNGLKLRGLNVLYDEHEYLRNTIKYQLKDTNSGKVMIYRVPFLVPILVSTVLSLIAQLIIYASIHT”, the protein production entry is recorded as “failed”.

Turning to “MGSVVHAEITEIKPFELRVNFGNSFRGRIHITEVLVNDASTSDEPFAKFRVGQSISARVVAKPCHTDIKKTQLWELSVKP”, the protein production result is reported as “not failed”. The same measure for “MKKVTIVGGNGTVGRVLAGGLAGEGYEVTVLDLKEPDDKQAVRFIRVDATDYNEVVKSIPAQTNALINLLAVKPSGDLLDRQEFAKMTDIFFKATYTILRAAAELGVPKVVFASSNHVTDVYEKGGDSLLGRQINTNDYPQSKSLYGLLKLASENLGYLFSHQLDAKVSVINLRIGTAAENELETLHAKPRSKKTLLSHPDLIGIFKAAIKSGKTYGTYYAVSDNKGRPWSIDSAIRELGYRPQVSASDILDED”: “failed”. In the case of “QHTEERELKKRLMNTARTVSEMTEVKEALARKKQTEAVRHAVEEIRMINEADYIVVMDMNHIRYTHPVSTSIGKKSEGADEEAAFAEHIYFSEAKGEIGTAVRAFYPVKDQDLNQIGVVLVGKTLPGIADILLHLKRD” it was “not failed”; in that of “MTMITFSARLAPFQPETVWTLEAGTLIETRGRIERRFPLSSLTRYSLSLAPDGRRRVLLVVFGRRRLLIPSQSYVGPGRFEDRLAAFSVLARALAAVGADLSPRARFGLARLEARTALTFVMGLLAFGAASTLLFSLTAGMVAVGVDLAARMAFVLILMVAALPWLARPADFDPRDPPADLLP”, “failed”; in that of “MPLVKRNIDPRHLCHTALPRGIKNELECVTNISLANIIRQLSSLSKYAEDIFGELFNEAHSFSFRVNSLQERVDRLSVSVTQLDPKEEELSLQDITMRKAFRSSTIQDQQLFDRKTLPIPLQETYDVCEQPPPLNILTPYRDDGKEGLKFYTNPSYFFDLW”, “failed”.
